The values below come from patent US11851498B2, “Anti-CD276 antibodies (B7H3)” (THE UNITED STATES OF AMERICA, as represented by THE …, priority 2014, dated 2023).

Like-named read-outs stand apart in the source and are kept apart here.

One may read the Kd as a measure of binding affinity in units of concentration.

Series [1] has as its system mouse CD276-AP fusion protein. As to the kind of experiment: ELISA binding assay, mouse CD276. The following applies: scFv-Fc fusion protein in culture medium, serially diluted; CD276-AP coated at 2 μg/ml; FIG. 1B. How it is done: (§1) The scFv-encoding inserts of the unique clones were digested with SfiI and ligated into modified pSecTag bearing the same set of SfiI sites and Fc-Avi tag for soluble expression. These constructs were transfected into 293T cells for expression following the manufacturer's protocol. After 72 hr of growth, the scFv-Fc fusion proteins in the culture medium were used for the ELISA binding assay.
(§2) 50 μl of the diluted human (FIG. 1A) or mouse (FIG. 1B) CD276-AP fusion protein in PBS at 2 μg/ml was coated in a 96-well plate at 4° C. overnight. Transiently expressed scFv-Fc fusion protein in the culture medium was serially diluted and added into the target protein coated wells. After washing, a 1:3000 diluted horseradish peroxidase (HRP) conjugated goat anti-human IgG antibody was added for 1 hr at RT. After washing, 3, 3, 5, 5′-Tetramethylbenzidine (TMB) substrate was added, and the optical density (O.D.) was read at 450 nm.
On the technique in general: In an ELISA, binding on a coated surface is turned into a signal by an enzyme label.

The target of series [2] is T1, human CD276 Ecto-domain (Homo sapiens, UniProt Q5ZPR3).
T1 construct: The human CD276 soluble extracellular domain was covalently immobilized onto a sensor chip (CM5)
T1 sequence (Q5ZPR3 29-466 limits assumed): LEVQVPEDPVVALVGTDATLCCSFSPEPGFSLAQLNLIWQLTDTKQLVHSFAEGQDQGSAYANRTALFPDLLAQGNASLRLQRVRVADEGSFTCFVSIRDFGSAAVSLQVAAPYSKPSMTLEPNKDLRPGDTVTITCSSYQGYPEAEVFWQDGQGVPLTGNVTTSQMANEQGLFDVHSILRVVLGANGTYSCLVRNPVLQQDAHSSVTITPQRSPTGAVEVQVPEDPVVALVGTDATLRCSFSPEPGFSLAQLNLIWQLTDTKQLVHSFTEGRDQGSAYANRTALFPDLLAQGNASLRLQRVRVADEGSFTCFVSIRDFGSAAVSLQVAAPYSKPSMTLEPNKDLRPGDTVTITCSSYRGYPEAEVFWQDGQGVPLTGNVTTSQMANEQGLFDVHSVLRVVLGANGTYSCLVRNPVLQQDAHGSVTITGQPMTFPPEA
The series is described as follows: Affinity determination by surface plasmon resonance (Biacore X100). It counts as binding. The note with it: scFv m8524; immobilized human CD276 soluble extracellular domain; 1:1 Langmuir fit; 25° C; FIG. 2. The procedure: Binding affinities of human anti-CD276 scFv m8524 to human CD276 Ecto-domain were analyzed by surface plasmon resonance technology using a Biacore X100 instrument (GE healthcare). The human CD276 soluble extracellular domain was covalently immobilized onto a sensor chip (CM5) using carbodiimide coupling chemistry. A control reference surface was prepared for nonspecific binding and refractive index changes. For analysis of the kinetics of interactions, varying concentrations of […] were injected at a flow rate of […] using running buffer containing 10 mM HEPES, 150 mM NaCl, 3 mM EDTA, and 0.05% Surfactant P-20 (pH 7.4). The association and dissociation phase data were fitted simultaneously to a 1:1 Langumir global model, using the nonlinear data analysis program BIAevaluation 3.2. All of the experiments were done at 25° C. The affinity of the antibody m8524 (m276) (comprising a heavy chain comprising SEQ ID NO: 26 and a light chain comprising SEQ ID NO: 27) is shown in FIG. 2.
A general note: SPR reads the build-up and loss of mass on a sensor chip optically.

The test system of series [3] is human CD276-AP fusion protein. The series is described as follows: ELISA binding assay, human CD276. The following applies: scFv-Fc fusion protein in culture medium, serially diluted; CD276-AP coated at 2 μg/ml; FIG. 1A. How it is done: as §1, §2
In series [4] the test system is 293/CD276 cells. The series is described as follows: Cell viability of HEK 293 cells transduced with CD276. How it is done: (§3) HEK 293 cells (293) or HEK 293 cells transduced with CD276 (293/CD276) were treated with MMAE alone, m8524 (m276) (SEQ ID NOs: 26 and 27) antibody alone, m825 (irrelevant control antibody)-ADC, or m8524-ADC. The drug of the ADCs was MMAE.
Series [5] deals with T2, mouse CD276 expressed on the cell surface (CHO-msCD276) (Mus musculus, UniProt Q8VE98).
T2 construct: expressed in transfected cells; host or cells: CHO cells
T2 sequence (Q8VE98 29-316): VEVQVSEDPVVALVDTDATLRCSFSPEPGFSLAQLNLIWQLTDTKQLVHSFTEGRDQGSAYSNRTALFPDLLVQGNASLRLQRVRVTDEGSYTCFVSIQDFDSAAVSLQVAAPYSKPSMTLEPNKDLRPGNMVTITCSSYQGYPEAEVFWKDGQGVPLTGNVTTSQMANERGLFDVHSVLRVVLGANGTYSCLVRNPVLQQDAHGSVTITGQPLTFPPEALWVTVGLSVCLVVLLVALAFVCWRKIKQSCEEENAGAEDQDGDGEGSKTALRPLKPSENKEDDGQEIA
As to the kind of experiment: Flow cytometry binding to CHO cells expressing mouse CD276. The format is cell-based. The following applies: scFv-Fc, 1 μg/100 μl, FIG. 4. The procedure:
(§4) Chinese hamster ovary (CHO) cells were untransduced or transduced to express mouse CD276 or human CD276. The cells were cultured with 1 μg/100 μl of the anti-CD276 scFv-Fc m8524 (m276) (SEQ ID NOs: 26 and 27) (primary antibody) and fluorescein isothiocyanate (FITC) Gt anti-human antibody (H+L) (as a secondary antibody). The binding of the anti-CD276 scFv-Fc m8524 (m276) to mouse or human CD276 expressed on the cell surface was measured by flow cytometry.

In series [6] the target is T3, human CD276 expressed on the cell surface (CHO-huCD276) (Homo sapiens, UniProt Q5ZPR3).
T3 construct: expressed in transfected cells; host or cells: CHO cells
T3 sequence (Q5ZPR3 29-534): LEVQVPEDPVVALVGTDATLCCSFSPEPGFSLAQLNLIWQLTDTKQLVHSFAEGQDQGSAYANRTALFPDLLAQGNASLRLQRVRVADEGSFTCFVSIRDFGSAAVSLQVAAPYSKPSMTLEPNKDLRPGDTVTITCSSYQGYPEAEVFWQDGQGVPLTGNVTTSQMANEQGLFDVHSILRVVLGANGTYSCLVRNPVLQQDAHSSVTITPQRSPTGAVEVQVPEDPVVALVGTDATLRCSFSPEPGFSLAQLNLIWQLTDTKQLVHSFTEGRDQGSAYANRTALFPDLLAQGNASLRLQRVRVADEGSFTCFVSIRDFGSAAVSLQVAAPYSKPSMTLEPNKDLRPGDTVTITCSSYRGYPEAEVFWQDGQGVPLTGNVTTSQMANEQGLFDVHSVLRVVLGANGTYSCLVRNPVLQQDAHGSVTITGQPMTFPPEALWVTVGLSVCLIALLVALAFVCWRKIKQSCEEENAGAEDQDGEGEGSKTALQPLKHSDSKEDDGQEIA
The series is described as follows: Flow cytometry binding to CHO cells expressing human CD276. It counts as cell-based. The note with it: scFv-Fc, 1 μg/100 μl, FIG. 4. The procedure:
as §4

Series [7] concerns HEK 293 cells (293). The series is described as follows: Cell viability of untransduced HEK 293 cells. The procedure:
as §3

Series [8] deals with HCT-116 human colon cancer xenografts. The series is described as follows: HCT-116 human colon cancer xenografts in athymic nude mice. The format is in vivo. The note with it: 1, 3, 10 or 30 mpk twice a week for three weeks; FIGS. 8 and 9. The procedure: Athymic nude mice bearing HCT-116 human colon cancer xenografts were treated with control (vehicle), m8524 (m276) (SEQ ID NOs: 26 and 27) alone (30 mg/kg (mpk)), or m8524 (m276)-MMAE ADCs at various dosages (1 mpk, 3 mpk, 10 mpk, or 30 mpk) twice a week for three weeks. Tumor volume was measured at various time points after administration.
(In general: A xenograft is tissue or cells of one species grown in another, often human tumour cells in immunodeficient mice.)

Series [9] deals with HT29 cells. The series is described as follows: In vitro cell viability, HT29. The format is cell-based, human. The note with it: various concentrations (nM), FIG. 13.
Series [10] has as its system HCT116 cells. The series is described as follows: In vitro cell viability, HCT116. The format is cell-based, human. The following applies: various concentrations (nM), FIG. 13.
Series [11] has as its system KM12 human colon carcinoma xenografts. As to the kind of experiment: KM12 human colon carcinoma xenografts in athymic nude mice. The format is in vivo. The following applies: 1, 3 or 10 mpk twice weekly for 3 weeks, 2 day break, FIG. 11. How it is done: Athymic nude mice bearing KM12 human colon carcinoma xenografts were treated with control (vehicle), m8524 (m276) (SEQ ID NOs: 26 and 27) alone (10 mg/kg (mpk)), or m8524 (m276)-MMAE ADCs at various dosages (1 mpk, 3 mpk, or 10 mpk) twice weekly for 3 weeks, followed by a 2 day break, followed by another dose twice weekly for 3 weeks. Tumor volume was measured at various time points after administration.

Series [12] has as its system OVCAR3 cells. The series is described as follows: In vitro cell viability, OVCAR3. The format is cell-based, human. The following applies: various concentrations (nM), FIG. 13.
Series [13] relates to MDA-MB231 human breast cancer cells (mammary fat pad). As to the kind of experiment: MDA-MB231 human breast cancer orthotopic xenografts in athymic nude mice. It counts as in vivo. The following applies: 1 mpk or 10 mpk twice weekly for 3 weeks; FIG. 16. How it is done:
MDA-MB231 human breast cancer cells were implanted in the mammary fat pad of athymic nude mice (orthotopic model). Tumor-bearing mice were treated with control (vehicle), m8524 (m276) (SEQ ID NOs: 26 and 27) alone (10 mg/kg (mpk)), or m8524 (m276)-MMAE ADCs (at a dose of 1 mpk or 10 mpk) twice weekly for 3 weeks. Tumor volume was measured at various time points after administration.

For series [14], the system named is OVCAR3 human ovarian xenografts. The series is described as follows: OVCAR3 human ovarian xenografts in SCID mice. The format is in vivo. The following applies: 1, 3 or 10 mpk on days 1, 4, 8 and 11; FIGS. 12 and 15. The procedure: SCID mice bearing OVCAR3 human ovarian xenografts were treated with control (vehicle), m8524 (m276) (SEQ ID NOs: 26 and 27) alone (10 mg/kg (mpk)), MMAE alone (0.2 mpk), or m8524 (m276)-MMAE ADCs at various dosages (1 mpk, 3 mpk, or 10 mpk) on days 1, 4, 8 and 11. Tumor volume was measured at various time points after administration. The results are shown in FIG. 12 (up to Day 11) and FIG. 15 (up to Day 53).

Series [15] relates to HT29 human colorectal adenocarcinoma xenografts. The series is described as follows: HT29 human colorectal adenocarcinoma xenografts in athymic nude mice. It counts as in vivo. The following applies: 1, 3 or 10 mpk twice a week for three weeks; FIG. 10. How it is done: Athymic nude mice bearing HT29 human colorectal adenocarcinoma xenografts were treated with control (vehicle), m8524 (m276) (SEQ ID NOs: 26 and 27) alone (10 mg/kg (mpk)), or m8524 (m276)-MMAE ADCs at various dosages (1 mpk, 3 mpk, or 10 mpk) twice a week for three weeks. Tumor volume was measured at various time points after administration.

B1: m8524: anti-CD276 antibody clone, heavy chain comprising SEQ ID NO: 26 and light chain comprising SEQ ID NO: 27 (antibody, V domains shown)
VH: QVQLQQSGAEVKKPGSSVKVSCKASGGTFSSYAISWVRQAPGQGLEWMGGIIPILGIANYAQKFQGRVTITADESTSTAYMELSSLRSEDTAVYYCARGGSGSYHMDVWGKGTTVTVSS
VL: EIVLTQSPATLSLSPGERATLSCRASQSVSSYLAWYQQKPGQAPRLLIYDASNRATGIPARFSGSGSGTDFTLTISSLEPEDFAVYYCQQRSNWPPRITFGQGTRLEIK
With B1, the “binding to mouse CD276 (OD at 450 nm, ELISA)” value in series [1] is “bound”. For the same molecule, binding in series [2] was put at a Kd of 0.049 nM. For the same molecule, the “binding to human CD276 (OD at 450 nm, ELISA)” value in series [3] is “bound”. For the same molecule, the “cytotoxicity (cell viability, % of control)” value in series [4] and in [7] was “resistant to killing” throughout. The “binding to mouse CD276 expressed on the cell surface (flow cytometry)” value in series [5] is listed as “bound”. In addition, the “binding to human CD276 expressed on the cell surface (flow cytometry)” value in [6] is given as “bound”.

B2: m8524-ADC: m8524 antibody conjugated to MMAE via a linking moiety; n is 2, 4, 6, or 8 (conjugate)
VH: QVQLQQSGAEVKKPGSSVKVSCKASGGTFSSYAISWVRQAPGQGLEWMGGIIPILGIANYAQKFQGRVTITADESTSTAYMELSSLRSEDTAVYYCARGGSGSYHMDVWGKGTTVTVSS
VL: EIVLTQSPATLSLSPGERATLSCRASQSVSSYLAWYQQKPGQAPRLLIYDASNRATGIPARFSGSGSGTDFTLTISSLEPEDFAVYYCQQRSNWPPRITFGQGTRLEIK
For B2, the “tumor volume as compared to control or m8524 (m276) alone” value in series [8], in series [11], in series [13] and in series [15] was “decreased” throughout. For the same molecule, the cell viability result in [9], in [10] and in series [12] was “decreased” throughout. Further, the “cytotoxicity (cell viability, % of control)” value in [4] (293/CD276 cells (high CD276), various concentrations (nM), FIG. 7) was “selectively cytotoxic”; in series [7] (293 cells (low CD276), various concentrations (nM), FIG. 7), “selectively cytotoxic”. Besides, the “selectivity for CD276-expressing cells” value in series [4] (293/CD276 versus 293 cells, FIG. 7) is “toxicity corresponding to CD276 expression levels”. For the same molecule, the “tumor volume as compared to control, MMAE alone, or m8524 (m276) alone” value in series [14] is on record as “decreased”.
